Publication PMC4522956 (2015)

B1: HIF-1α PASb (domain or fragment)
chain: not shown
B2: C-terminal Per-Arnt-Sim (PASb) domain of human HIF-3α9 (domain or fragment)
chain: GAFLSRHSLDMKFTYCDDRIAEVAGYSPDDLIGCSAYEYIHALDSDAVSKSIHTLLSKGQAVTGQYRFLARSGGYLWTQTQATVVSGGRGPQSESIVCVHFLISQVEET

Experiments:
[1] = molecular target: T1, HIF-1β PASb labeled with FITC (human (cDNA library from the breast …, UniProt P27540 349-467, FITC (fluorescein isothiocyanate) label, sites not stated)); experiment: FP; at equilibrium
[2] = molecular target: T1, HIF-1β PASb labeled with FITC; experiment: FP; PASb-3α with bacterial lipids, at equilibrium
[3] = molecular target: T1, HIF-1β PASb labeled with FITC; experiment: FP; PASb-3α with linoleic acid, at equilibrium

T1 sequence (P27540 349-467): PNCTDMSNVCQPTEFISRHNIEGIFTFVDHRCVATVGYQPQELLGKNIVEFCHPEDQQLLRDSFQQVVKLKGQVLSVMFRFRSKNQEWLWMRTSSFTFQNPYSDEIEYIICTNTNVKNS

Binder	Kd [1] [µM]	Kd [2] [µM]	Kd [3] [µM]
B1	36	–	–
B2	–	12	10
